What was measured:
HLA-B*51:01 [1] = assay: IEDB peptide-MHC binding, purified MHC/competitive/radioactivity; filed as Kd, often an IC50 or EC50 that approximates it; ≥ and ≤ were set here for values at or beyond the usual limits of such assays; conditions: source organism: Dengue virus 1 Singapore/S275/1990
HLA-A*02:01 [2] = assay: as above
HLA-A*02:06 = assay: as above
HLA-A*02:17 = assay: as above
HLA-B*58:01 [3] = assay: as above
HLA-B*53:01 = assay: as above; conditions: source organism: Dengue virus 4 Philippines/H241/1956
HLA-A*26:01 [4] = assay: as above
HLA-A*30:01 = assay: as above; conditions: source organism: Dengue virus 2 Peru/IQT2913/1996
HLA-A*02:03 = assay: as above
HLA-B*57:01 = assay: as above
HLA-A*32:01 = assay: as above; conditions: source organism: Dengue virus 2 Jamaica/1409/1983
HLA-B*08:01 [5] = assay: as above; conditions: source organism: Dengue virus 2 Jamaica/1409/1983
HLA-B*15:01 [6] = assay: as above; conditions: source organism: Dengue virus 2 Jamaica/1409/1983
HLA-A*24:03 = assay: IEDB peptide-MHC binding, purified MHC/direct/fluorescence; filed as Kd, often an IC50 or EC50 that approximates it; ≥ and ≤ were set here for values at or beyond the usual limits of such assays
HLA-A*68:02 = assay: IEDB peptide-MHC binding, purified MHC/competitive/radioactivity; filed as Kd, often an IC50 or EC50 that approximates it; ≥ and ≤ were set here for values at or beyond the usual limits of such assays
HLA-A*31:01 = assay: IEDB peptide-MHC binding, purified MHC/direct/fluorescence; filed as Kd, often an IC50 or EC50 that approximates it; ≥ and ≤ were set here for values at or beyond the usual limits of such assays
HLA-B*44:02 = assay: as above
HLA-B*40:01 = assay: as above
HLA-A*03:01 = assay: as above
HLA-A*02:01 [7] = assay: as above
HLA-A*01:01 [8] = assay: as above
HLA-B*08:01 [9] = assay: as above
HLA-B*07:02 = assay: as above
HLA-B*58:01 [10] = assay: as above
HLA-A*69:01 [11] = assay: as above
HLA-B*15:01 [12] = assay: as above
HLA-B*27:05 = assay: as above
HLA-A*11:01 = assay: as above
HLA-A*26:01 [13] = assay: as above
HLA-A*24:02 = assay: IEDB peptide-MHC binding, purified MHC/competitive/radioactivity; filed as Kd, often an IC50 or EC50 that approximates it; ≥ and ≤ were set here for values at or beyond the usual limits of such assays
HLA-A*01:01 [14] = assay: as above; conditions: source organism: Dengue virus 1 Brazil/97-11/1997
HLA-A*23:01 = assay: as above; conditions: source organism: Dengue virus 1 Brazil/97-11/1997
HLA-B*39:01 = assay: IEDB peptide-MHC binding, purified MHC/competitive/fluorescence; filed as Kd, often an IC50 or EC50 that approximates it; ≥ and ≤ were set here for values at or beyond the usual limits of such assays; conditions: source organism: Homo sapiens
HLA-B*51:01 [15] = assay: as above; conditions: source organism: Homo sapiens
HLA-B*27:03 = assay: as above; conditions: source organism: Homo sapiens
HLA-A*02:01 [16] = assay: as above; conditions: source organism: Homo sapiens
HLA-A*69:01 [17] = assay: as above; conditions: source organism: Homo sapiens
HLA-B*46:01 = assay: as above; conditions: source organism: Homo sapiens
HLA-A*26:01 [18] = assay: as above; conditions: source organism: Homo sapiens
[19] = source organism: Dengue virus 1 Singapore/S275/1990
[20] = source organism: Dengue virus 4 Philippines/H241/1956
[21] = source organism: Dengue virus 3 Martinique/1243/1999
[22] = source organism: Dengue virus 2 Thailand/NGS-C/1944
[23] = source organism: Dengue virus 2 Peru/IQT2913/1996
[24] = source organism: Dengue virus 2 Jamaica/1409/1983
[25] = source organism: Dengue virus 3 Sri Lanka/1266/2000
[26] = source organism: Dengue virus 1 Brazil/97-11/1997
[27] = source organism: Salmonella enterica subsp. enterica serovar Typhimurium
[28] = source organism: Salmonella enterica subsp. enterica serovar Typhi

Sequence: FSLGLLCISI
- Kd (HLA-B*51:01 [1]): ≥ 40800 nM
- Kd (HLA-A*02:01 [2]; [19]): 7.58 nM
- Kd (HLA-A*02:06; [19]): 2.6 nM
- Kd (HLA-A*02:17; [19]): 942 nM

Sequence: FVIDNVHTW
- Kd (HLA-B*58:01 [3]; [20]): 17.7 nM
- Kd (HLA-B*53:01): 1.22 nM
- Kd (HLA-A*26:01 [4]; [20]): 54.8 nM

Sequence: GAVFTEENQW
- Kd (HLA-B*58:01 [3]; [21]): 22.6 nM

Sequence: GMIIMLIPTV
- Kd (HLA-A*02:01 [2]; [22]): 70.9 nM
- Kd (HLA-A*02:06; [23]): 94.7 nM
- Kd (HLA-A*30:01): 12600 nM
- Kd (HLA-A*02:03; [23]): 4.49 nM
- Kd (HLA-A*02:17; [22]): 6590 nM

Sequence: IGLTSRATW
- Kd (HLA-B*58:01 [3]; [24]): 6.11 nM
- Kd (HLA-B*57:01; [24]): 6.87 nM

Sequence: ILIGVIITW
- Kd (HLA-A*32:01): ≥ 23500 nM
- Kd (HLA-B*58:01 [3]; [24]): 1530 nM
- Kd (HLA-B*57:01; [24]): 352 nM

Sequence: KAAVEDEEF
- Kd (HLA-B*58:01 [3]; [25]): 61.9 nM
- Kd (HLA-B*57:01; [25]): 1670 nM

Sequence: KGKRIEPSW
- Kd (HLA-B*58:01 [3]; [24]): 11.2 nM
- Kd (HLA-B*57:01; [24]): 13.1 nM

Sequence: LMMRTTWAL
- Kd (HLA-A*02:01 [2]; [24]): 1.35 nM
- Kd (HLA-A*02:06; [24]): 8.05 nM
- Kd (HLA-A*02:03; [24]): 0.47 nM
- Kd (HLA-B*08:01 [5]): 1.32 nM
- Kd (HLA-B*15:01 [6]): 0.12 nM
- Kd (HLA-A*02:17; [24]): 35.9 nM

Sequence: LSSKPEFCIK
- Kd (HLA-B*58:01 [3]; [20]): 10600 nM

Sequence: LSSLLKNDVP
- Kd (HLA-B*58:01 [3]; [26]): 819 nM
- Kd (HLA-B*57:01; [26]): 7260 nM

Sequence: LTSKELMMAT
- Kd (HLA-B*58:01 [3]; [24]): 1130 nM
- Kd (HLA-B*57:01; [24]): ≥ 29800 nM

Sequence: LYILGLFKF
- Kd (HLA-A*24:03; source organism: Orthohantavirus hantanense): 115 nM

Sequence: NASGNIVSSV
- Kd (HLA-B*58:01 [3]; [24]): 112 nM
- Kd (HLA-B*57:01; [24]): 464 nM
- Kd (HLA-A*68:02; [24]): 48 nM

Sequence: NSDYMMWVG
- Kd (HLA-A*31:01; [27]): ≥ 20000 nM
- Kd (HLA-A*24:03; [27]): ≥ 20000 nM
- Kd (HLA-B*44:02; [27]): ≥ 20000 nM
- Kd (HLA-B*40:01; [27]): ≥ 20000 nM
- Kd (HLA-A*03:01; [27]): ≥ 20000 nM
- Kd (HLA-A*02:01 [7]; [27]): ≥ 20000 nM
- Kd (HLA-A*01:01 [8]; [27]): ≥ 20000 nM
- Kd (HLA-B*08:01 [9]; [27]): ≥ 20000 nM
- Kd (HLA-B*07:02; [27]): ≥ 20000 nM
- Kd (HLA-B*58:01 [10]; [27]): ≥ 20000 nM
- Kd (HLA-A*69:01 [11]; [27]): ≥ 20000 nM
- Kd (HLA-B*15:01 [12]; [27]): ≥ 20000 nM
- Kd (HLA-B*27:05; [27]): ≥ 20000 nM
- Kd (HLA-A*11:01; [27]): ≥ 20000 nM
- Kd (HLA-A*26:01 [13]; [27]): ≥ 20000 nM

Sequence: PSEDEQQGH
- Kd (HLA-A*31:01; [28]): ≥ 20000 nM
- Kd (HLA-A*24:03; [28]): ≥ 20000 nM
- Kd (HLA-B*44:02; [28]): ≥ 20000 nM
- Kd (HLA-B*40:01; [28]): ≥ 20000 nM
- Kd (HLA-A*03:01; [28]): ≥ 20000 nM
- Kd (HLA-A*02:01 [7]; [28]): ≥ 20000 nM
- Kd (HLA-A*01:01 [8]; [28]): ≥ 20000 nM
- Kd (HLA-B*08:01 [9]; [28]): ≥ 20000 nM
- Kd (HLA-B*07:02; [28]): ≥ 20000 nM
- Kd (HLA-B*58:01 [10]; [28]): ≥ 20000 nM
- Kd (HLA-A*69:01 [11]; [28]): ≥ 20000 nM
- Kd (HLA-B*15:01 [12]; [28]): ≥ 20000 nM
- Kd (HLA-B*27:05; [28]): ≥ 20000 nM
- Kd (HLA-A*11:01; [28]): ≥ 20000 nM
- Kd (HLA-A*26:01 [13]; [28]): ≥ 20000 nM

Sequence: RVLNLVENW
- Kd (HLA-A*32:01): 21.3 nM
- Kd (HLA-B*58:01 [3]; [24]): 1.34 nM
- Kd (HLA-B*57:01; [24]): 2.43 nM

Sequence: SASRAWNVWE
- Kd (HLA-B*58:01 [3]; [21]): 53.9 nM
- Kd (HLA-B*57:01; [21]): 279 nM

Sequence: TIMAAILAYT
- Kd (HLA-A*02:01 [2]; [24]): 33.4 nM
- Kd (HLA-A*02:03; [24]): 9.23 nM
- Kd (HLA-A*68:02; [24]): 86.8 nM
- Kd (HLA-A*02:17; [24]): 12200 nM

Sequence: TMFGGVSWMV
- Kd (HLA-A*02:01 [2]; [20]): 4.46 nM
- Kd (HLA-A*02:06; [20]): 2.25 nM
- Kd (HLA-A*02:03; [20]): 65.1 nM
- Kd (HLA-A*68:02; [20]): 5.34 nM
- Kd (HLA-A*02:17; [20]): 338 nM

Sequence: VASAGISYKD
- Kd (HLA-B*58:01 [3]; [20]): 3920 nM
- Kd (HLA-B*57:01; [20]): 4690 nM

Sequence: VLSIVSLFPL
- Kd (HLA-A*02:01 [2]; [19]): 8.47 nM
- Kd (HLA-B*57:01; [26]): 108 nM
- Kd (HLA-A*02:17; [19]): 8 nM

Sequence: VMASSVLLW
- Kd (HLA-B*58:01 [3]; [19]): 1.28 nM
- Kd (HLA-A*24:02; [19]): 113 nM
- Kd (HLA-B*57:01; [19]): 6.56 nM

Sequence: VTAKWLWGF
- Kd (HLA-A*01:01 [14]): 13900 nM
- Kd (HLA-B*58:01 [3]; [26]): 59 nM
- Kd (HLA-A*24:02; [26]): 241 nM
- Kd (HLA-A*23:01): 417 nM
- Kd (HLA-A*26:01 [4]; [26]): 12800 nM

Sequence: WSTIWRQLY
- Kd (HLA-B*39:01): ≥ 20000 nM
- Kd (HLA-B*51:01 [15]): ≥ 20000 nM
- Kd (HLA-B*27:03): ≥ 20000 nM
- Kd (HLA-A*02:01 [16]): ≥ 20000 nM
- Kd (HLA-A*69:01 [17]): ≥ 20000 nM
- Kd (HLA-B*46:01): ≥ 20000 nM
- Kd (HLA-A*26:01 [18]): ≥ 20000 nM
- Kd (HLA-A*01:01 [8]; source organism: Mus musculus): 10 nM

Sequence: YTMCSGKFSI
- Kd (HLA-A*02:01 [2]; [20]): 79.8 nM
- Kd (HLA-A*68:02; [20]): 1.45 nM
- Kd (HLA-A*02:17; [20]): 538 nM

Reference: the Immune Epitope Database (IEDB)
